Measured values published in US20060127407A1 (IMMUNOGEN, published 2006).

Tests used:
alphaVbeta3 integrin [1] = target: T1, alphaVbeta3 integrin (human, UniProt P06756 31-1048; P05106 27-788); assay: saturation binding curve on αvβ3 coated plates
T1 construct: Purified integrin coated on plates; also called αvβ3; αVβ3

[2] = target: T2, alphaV subunit integrins on human tumor cells (HT29, A549, A2780) (human, UniProt P06756 31-1048); assay: flow cytometry on HT29 human colon carcinoma cells, FITC anti-human antibody
T2 construct: whole, on cells; the cell line of each number is named under assay; also called alphaV integrins on living cells
T2 sequence (P06756 31-1048): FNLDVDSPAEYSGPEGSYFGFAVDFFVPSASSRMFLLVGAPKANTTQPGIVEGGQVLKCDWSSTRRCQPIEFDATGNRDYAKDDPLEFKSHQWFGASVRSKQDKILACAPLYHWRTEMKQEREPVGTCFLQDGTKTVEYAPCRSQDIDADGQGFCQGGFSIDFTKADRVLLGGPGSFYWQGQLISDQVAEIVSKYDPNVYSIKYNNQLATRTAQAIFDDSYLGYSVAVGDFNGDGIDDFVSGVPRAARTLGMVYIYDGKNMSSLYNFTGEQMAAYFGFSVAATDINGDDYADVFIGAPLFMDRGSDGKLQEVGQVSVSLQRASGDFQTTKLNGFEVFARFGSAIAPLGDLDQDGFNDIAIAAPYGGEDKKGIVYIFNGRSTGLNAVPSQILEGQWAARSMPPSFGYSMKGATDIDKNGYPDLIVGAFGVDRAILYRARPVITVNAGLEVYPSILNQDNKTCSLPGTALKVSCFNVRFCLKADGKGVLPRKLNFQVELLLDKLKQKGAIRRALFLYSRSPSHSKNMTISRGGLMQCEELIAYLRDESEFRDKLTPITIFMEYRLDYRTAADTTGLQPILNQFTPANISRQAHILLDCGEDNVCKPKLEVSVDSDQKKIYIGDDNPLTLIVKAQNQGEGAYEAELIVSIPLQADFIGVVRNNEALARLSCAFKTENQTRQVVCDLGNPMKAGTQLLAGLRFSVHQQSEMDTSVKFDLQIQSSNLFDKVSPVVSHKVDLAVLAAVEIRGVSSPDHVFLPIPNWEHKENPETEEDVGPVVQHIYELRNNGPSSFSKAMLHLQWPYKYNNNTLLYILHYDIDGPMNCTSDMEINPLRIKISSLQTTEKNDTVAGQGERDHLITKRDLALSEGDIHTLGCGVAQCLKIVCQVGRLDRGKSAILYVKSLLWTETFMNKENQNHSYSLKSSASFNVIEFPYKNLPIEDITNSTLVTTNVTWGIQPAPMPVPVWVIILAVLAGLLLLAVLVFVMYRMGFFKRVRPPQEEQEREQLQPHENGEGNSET
Description: (§1) Cells: HT29 human colon carcinoma and A549 human lung carcinoma cells were from ATCC and maintained in alphaMEM supplemented with 10% fetal bovine serum (FBS). A2780 human ovarian carcinoma cells were obtained from National Cancer Institute. A2780 cells were cultured in RPMI 1640 medium containing 10% FBS. […] Absence of primary antibody or substitution of primary antibody with isotype matched antibody served as negative controls. Cells were immediately analyzed with a FACS Scan II flow cytometer (Becton Dickinson, Mountain View, Calif.). Data was analyzed with GraphPad Prism software using non-liner regression to determine the concentration at 50% maximal binding (Table 7).

alphaVbeta5 integrin [3] = target: T3, alphaVbeta5 integrin (UniProt P06756 31-1048; P18084 24-799); assay: saturation binding curve, 125-I CNTO 95 on αvβ5 coated plates
T3 construct: Purified integrin coated on plates; also called αvβ5; alphaVbetaS protein
T3 sequence (P06756 31-1048, chain 1 of 2): as the sequence (P06756 31-1048) above
T3 sequence (P18084 24-799, chain 2 of 2): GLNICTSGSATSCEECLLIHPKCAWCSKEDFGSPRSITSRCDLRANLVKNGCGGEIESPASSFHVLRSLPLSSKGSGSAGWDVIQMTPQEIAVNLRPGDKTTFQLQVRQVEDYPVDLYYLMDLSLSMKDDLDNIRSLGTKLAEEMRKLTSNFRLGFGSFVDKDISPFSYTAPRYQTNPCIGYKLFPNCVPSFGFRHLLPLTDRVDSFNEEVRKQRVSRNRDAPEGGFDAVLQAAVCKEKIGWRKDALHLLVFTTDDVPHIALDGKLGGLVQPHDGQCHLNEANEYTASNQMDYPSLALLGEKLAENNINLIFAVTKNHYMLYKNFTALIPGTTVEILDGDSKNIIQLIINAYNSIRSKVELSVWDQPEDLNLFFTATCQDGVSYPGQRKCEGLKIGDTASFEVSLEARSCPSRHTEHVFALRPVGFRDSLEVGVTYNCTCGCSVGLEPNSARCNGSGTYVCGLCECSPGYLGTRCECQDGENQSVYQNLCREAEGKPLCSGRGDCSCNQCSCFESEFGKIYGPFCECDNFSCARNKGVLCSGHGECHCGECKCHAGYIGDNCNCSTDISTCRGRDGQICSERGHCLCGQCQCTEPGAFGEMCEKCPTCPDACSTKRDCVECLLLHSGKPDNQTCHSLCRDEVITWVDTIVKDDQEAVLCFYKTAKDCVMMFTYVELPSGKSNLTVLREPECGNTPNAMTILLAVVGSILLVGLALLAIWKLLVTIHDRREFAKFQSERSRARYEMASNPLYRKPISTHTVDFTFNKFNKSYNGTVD
Description: (§2) A375S2 and M21 cells express both αvβ₃ and αᵥβ₅, HT-29 cells express αvβ5. For comparison, other Mabs capable of binding integrins were used. The Kd was calculated from a saturation binding curve in each case using multiple replicates of multiple lots of antibody.

alphaVbeta3 integrin [4] = target: T1, alphaVbeta3 integrin; assay: ELISA, purified antibody on alphaVbeta3
[5] = target: T2, alphaV subunit integrins on human tumor …; assay: flow cytometry on A2780 human ovarian carcinoma cells, FITC anti-human antibody
Description: as §1

[6] = target: T2, alphaV subunit integrins on human tumor …; assay: flow cytometry on A549 human lung carcinoma cells, FITC anti-human antibody
Description: as §1

alphaVbeta3 integrin [7] = target: T1, alphaVbeta3 integrin; assay: saturation binding curve, 125-I CNTO 95 on αvβ3 coated plates
Description: as §2

alphaVbeta5 integrin [8] = target: T3, alphaVbeta5 integrin; assay: ELISA on alphaVbeta5 protein, absorbance against concentration
alphaVbeta3 integrin [9] = target: T1, alphaVbeta3 integrin; assay: ELISA on alphaVbeta3 protein, absorbance against concentration

T1 sequence (P06756 31-1048, chain 1 of 2): as the sequence (P06756 31-1048) above
T1 sequence (P05106 27-788, chain 2 of 2): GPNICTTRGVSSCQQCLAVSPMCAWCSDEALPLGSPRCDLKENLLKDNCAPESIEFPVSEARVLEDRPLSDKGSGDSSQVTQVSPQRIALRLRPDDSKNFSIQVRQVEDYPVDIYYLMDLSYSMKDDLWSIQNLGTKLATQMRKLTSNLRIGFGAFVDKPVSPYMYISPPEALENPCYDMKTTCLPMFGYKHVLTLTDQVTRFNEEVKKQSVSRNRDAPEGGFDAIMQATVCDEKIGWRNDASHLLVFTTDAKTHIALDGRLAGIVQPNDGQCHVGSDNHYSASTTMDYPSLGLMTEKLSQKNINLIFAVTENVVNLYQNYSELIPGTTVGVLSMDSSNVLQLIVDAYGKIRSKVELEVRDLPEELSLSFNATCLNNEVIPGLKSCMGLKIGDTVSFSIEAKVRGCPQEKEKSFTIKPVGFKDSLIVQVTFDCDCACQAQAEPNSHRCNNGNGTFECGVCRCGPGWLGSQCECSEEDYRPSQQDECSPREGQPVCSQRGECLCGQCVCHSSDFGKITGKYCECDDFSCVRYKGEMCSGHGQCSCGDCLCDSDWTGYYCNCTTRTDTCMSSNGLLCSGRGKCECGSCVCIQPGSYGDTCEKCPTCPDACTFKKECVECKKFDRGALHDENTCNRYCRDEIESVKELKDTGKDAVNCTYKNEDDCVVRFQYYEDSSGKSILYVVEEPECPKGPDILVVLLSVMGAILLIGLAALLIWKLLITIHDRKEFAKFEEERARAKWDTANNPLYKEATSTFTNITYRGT

B1: abciximab (Fab, V domains shown)
VH: EVQLQQSGTVLARPGASVKMSCEASGYTFTNYWMHWVKQRPGQGLEWIGAIYPGNSDTSYIQKFKGKAKLTAVTSTTSVYMELSSLTNEDSAVYYCTLYDGYYVFAYWGQGTLVTVSA
VL: EIVLTQSPVTLSVTPGDSVSLSCRASRDISNNLHWFQQTSHESPRLLIKYASQSMSGIPSRFSGSGSGTDFTLSINSVETEDFGMYFCQQTNSWPYTFGGGTKLEIK
B1 gave a Kd (alphaVbeta3 integrin [1]) of 250 pM.

B2: Monoclonal antibody CNTO 95 (antibody, IgG1, V domains shown)
VH: QVQLVESGGGVVQPGRSRRLSCAASGFTFSRYTMHWVRQAPGKGLEWVAVISFDGSNKYYVDSVKGRFTISRDNSENTLYLQVNILRAEDTAVYYCAREARGSYAFDIWGQGTMVTVSS
VL: EIVLTQSPATLSLSPGERATLSCRASQSVSSYLAWYQQKPGQAPRLLIYDASNRATGIPARFSGSGSGTDFTLTISSLEPEDFAVYYCQQRSNWPPFTFGPGTKVDIK
notes: also called C371A; Mab CNTO 95
With B2 the EC50 [2] was 140 µg/mL, the Kd (alphaVbeta5 integrin [3]) was 25 pM and the EC50 (alphaVbeta3 integrin [4]) was 0.7 µg/mL. For the same binder, the EC50 [5] was 170 µg/mL, the EC50 [6] was 180 µg/mL and the Kd (alphaVbeta3 integrin [7]) was 210 pM. It also gave a Kd (alphaVbeta5 integrin [8]) of 30 pM and a Kd (alphaVbeta3 integrin [9]) of ~3000 pM.

B3: CNTO 364 (CNTO 95-SPP-DM1) (antibody, human IgG1, V domains shown)
VH: B2 VH
VL: B2 VL
modifications: maytansinoid DM1 linked through SPP (disulfide) to amino acid side chains, positions not given
notes: Antibody-drug conjugate of CNTO 95 (human IgG1 kappa); also called CNTO 95-DM1; the conjugate
B3 showed an EC50 [2] of 190 µg/mL, an EC50 [5] of 270 µg/mL and an EC50 [6] of 270 µg/mL. It also gave a Kd (alphaVbeta5 integrin [8]) of 35 pM and a Kd (alphaVbeta3 integrin [9]) of ~3000 pM.
